Legend:
Assay in all cases: holdup assay
Parameters in all cases: key: below the threshold = too weak to quantify, mostly under pKd 3.1 to 4
Settings in all cases: plain residues with an end cap or a label only (N-terminal biotin on a linker: ado-ado)
DFNB31_3, Q9P202 = target: T1, DFNB31_3, Q9P202
T1 sequence (Q9P202 811-907, limits assumed, looked up): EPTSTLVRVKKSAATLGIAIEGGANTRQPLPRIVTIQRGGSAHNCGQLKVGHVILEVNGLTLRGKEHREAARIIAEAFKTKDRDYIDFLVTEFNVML

MAGI1_2, Q96QZ7 = target: MAGI1_2, Q96QZ7
GRIP2_3, Q9C0E4 = target: GRIP2_3, Q9C0E4
GRIP1_3, Q9Y3R0 = target: T2, GRIP1_3, Q9Y3R0
T2 sequence (Q9Y3R0 247-346, limits assumed, looked up): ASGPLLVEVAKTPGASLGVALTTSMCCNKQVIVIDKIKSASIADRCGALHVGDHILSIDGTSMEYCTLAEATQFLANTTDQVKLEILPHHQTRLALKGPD

SYNJ2BP, P57105 = target: T3, SYNJ2BP, P57105
T3 sequence (P57105 8-110, limits assumed, looked up): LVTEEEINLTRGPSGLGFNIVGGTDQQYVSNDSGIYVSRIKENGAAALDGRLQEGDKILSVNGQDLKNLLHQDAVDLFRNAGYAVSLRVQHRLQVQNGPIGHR

NHERF2_2, Q15599 = target: NHERF2_2, Q15599
SHANK1, Q9Y566 = target: T4, SHANK1, Q9Y566
T4 sequence (Q9Y566 658-767, limits assumed, looked up): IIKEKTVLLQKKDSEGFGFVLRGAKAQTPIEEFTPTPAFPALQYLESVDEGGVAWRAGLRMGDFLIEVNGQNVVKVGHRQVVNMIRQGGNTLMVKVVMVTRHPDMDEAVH

PDZRN4_1, Q6ZMN7 = target: PDZRN4_1, Q6ZMN7
TJP1_3, Q07157 = target: TJP1_3, Q07157
FRMPD2_2, Q68DX3 = target: FRMPD2_2, Q68DX3
APBA2_2, Q99767 = target: T5, APBA2_2, Q99767
T5 sequence (Q99767 654-744, limits assumed, looked up): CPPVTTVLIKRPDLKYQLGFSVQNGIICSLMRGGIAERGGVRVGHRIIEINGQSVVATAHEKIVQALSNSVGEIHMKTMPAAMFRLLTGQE

MPP6, Q9NZW5 = target: T6, MPP6, Q9NZW5
T6 sequence (Q9NZW5 125-219, limits assumed, looked up): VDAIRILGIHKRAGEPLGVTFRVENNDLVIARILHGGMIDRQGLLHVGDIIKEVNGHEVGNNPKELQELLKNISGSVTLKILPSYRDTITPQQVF

GRID2IP_1, A4D2P6 = target: GRID2IP_1, A4D2P6
MPDZ_12, O75970 = target: T7, MPDZ_12, O75970
T7 sequence (O75970 1857-1958, limits assumed, looked up): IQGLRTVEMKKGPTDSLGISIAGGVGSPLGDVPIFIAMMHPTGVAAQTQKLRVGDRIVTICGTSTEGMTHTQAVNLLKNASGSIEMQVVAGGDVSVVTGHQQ

DLG4_3, P78352 = target: DLG4_3, P78352
GRIP1_7, Q9Y3R0 = target: T8, GRIP1_7, Q9Y3R0
T8 sequence (Q9Y3R0 999-1096, limits assumed, looked up): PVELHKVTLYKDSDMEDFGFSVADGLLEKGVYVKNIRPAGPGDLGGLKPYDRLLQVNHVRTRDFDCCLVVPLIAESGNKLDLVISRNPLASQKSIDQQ

PDZD7_3, Q9H5P4 = target: T9, PDZD7_3, Q9H5P4
T9 sequence (Q9H5P4 857-944, limits assumed, looked up): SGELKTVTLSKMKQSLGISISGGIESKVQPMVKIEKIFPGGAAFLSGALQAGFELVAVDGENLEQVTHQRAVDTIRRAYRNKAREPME

PTPN13_1, Q12923 = target: T10, PTPN13_1, Q12923
T10 sequence (Q12923 1088-1188, limits assumed, looked up): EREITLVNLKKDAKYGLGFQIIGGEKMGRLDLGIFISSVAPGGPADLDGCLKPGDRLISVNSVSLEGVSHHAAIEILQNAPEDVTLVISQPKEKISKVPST

CASK, O14936 = target: CASK, O14936
DLG4_2, P78352 = target: DLG4_2, P78352
GOPC, Q9HD26 = target: GOPC, Q9HD26
DFNB31_2, Q9P202 = target: T11, DFNB31_2, Q9P202
T11 sequence (Q9P202 274-371, limits assumed, looked up): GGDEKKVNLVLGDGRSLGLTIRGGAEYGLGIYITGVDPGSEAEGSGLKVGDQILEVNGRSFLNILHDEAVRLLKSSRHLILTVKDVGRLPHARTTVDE

MAGI1_1, Q96QZ7 = target: MAGI1_1, Q96QZ7
MAST1, Q9Y2H9 = target: MAST1, Q9Y2H9
Inadl_8, Q8NI35 = target: Inadl_8, Q8NI35
APBA1_1, Q02410 = target: T12, APBA1_1, Q02410
T12 sequence (Q02410 651-752, limits assumed, looked up): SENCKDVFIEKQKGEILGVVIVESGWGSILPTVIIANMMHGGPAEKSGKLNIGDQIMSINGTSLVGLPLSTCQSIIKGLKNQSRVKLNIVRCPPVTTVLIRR

GRID2IP_1, A4D2P6, sequence (A4D2P6 1-87): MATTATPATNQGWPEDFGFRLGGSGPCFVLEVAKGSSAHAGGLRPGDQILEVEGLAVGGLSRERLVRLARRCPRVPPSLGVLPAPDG
MAGI1_1, Q96QZ7, sequence (Q96QZ7 1-106): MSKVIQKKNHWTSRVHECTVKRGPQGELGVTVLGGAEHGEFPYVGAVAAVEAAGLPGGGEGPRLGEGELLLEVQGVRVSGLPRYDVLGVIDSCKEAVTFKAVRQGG
MAGI1_2, Q96QZ7, sequence (Q96QZ7 456-580): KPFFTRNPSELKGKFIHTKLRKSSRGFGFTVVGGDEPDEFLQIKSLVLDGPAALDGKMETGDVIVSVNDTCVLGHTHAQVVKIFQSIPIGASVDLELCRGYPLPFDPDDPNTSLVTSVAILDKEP
CASK, O14936, sequence (O14936 487-570): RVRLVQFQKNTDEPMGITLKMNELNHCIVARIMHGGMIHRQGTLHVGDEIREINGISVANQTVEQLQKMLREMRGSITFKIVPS
TJP1_3, Q07157, sequence (Q07157 416-512): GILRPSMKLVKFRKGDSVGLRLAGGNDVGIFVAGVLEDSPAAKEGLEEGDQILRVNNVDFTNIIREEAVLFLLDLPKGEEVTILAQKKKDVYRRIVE
MAST1, Q9Y2H9, sequence (Q9Y2H9 962-1065): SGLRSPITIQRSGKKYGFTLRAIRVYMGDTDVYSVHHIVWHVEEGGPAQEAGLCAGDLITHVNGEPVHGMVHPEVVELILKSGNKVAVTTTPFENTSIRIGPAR
DLG4_3, P78352, sequence (P78352 306-403): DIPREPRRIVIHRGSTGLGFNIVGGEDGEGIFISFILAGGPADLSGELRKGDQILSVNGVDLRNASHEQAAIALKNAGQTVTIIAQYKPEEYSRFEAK
GRIP2_3, Q9C0E4, sequence (Q9C0E4 238-339): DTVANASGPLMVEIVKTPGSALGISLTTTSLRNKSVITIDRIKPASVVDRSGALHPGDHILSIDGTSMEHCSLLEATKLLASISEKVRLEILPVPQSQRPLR
DLG4_2, P78352, sequence (P78352 155-259): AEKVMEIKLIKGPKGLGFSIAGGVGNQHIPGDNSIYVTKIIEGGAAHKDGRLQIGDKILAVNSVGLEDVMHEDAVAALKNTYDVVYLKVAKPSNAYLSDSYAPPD
FRMPD2_2, Q68DX3, sequence (Q68DX3 944-1038): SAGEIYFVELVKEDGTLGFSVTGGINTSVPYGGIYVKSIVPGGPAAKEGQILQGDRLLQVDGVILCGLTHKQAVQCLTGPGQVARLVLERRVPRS
PDZRN4_1, Q6ZMN7, sequence (Q6ZMN7 213-318): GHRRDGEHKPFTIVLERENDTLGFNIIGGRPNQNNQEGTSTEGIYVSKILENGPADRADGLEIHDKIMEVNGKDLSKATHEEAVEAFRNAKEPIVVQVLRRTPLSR
NHERF2_2, Q15599, sequence (Q15599 142-238): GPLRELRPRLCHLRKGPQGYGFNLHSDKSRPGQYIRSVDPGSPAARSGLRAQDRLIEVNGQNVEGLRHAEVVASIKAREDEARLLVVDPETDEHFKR
Inadl_8, Q8NI35, sequence (Q8NI35 1425-1530): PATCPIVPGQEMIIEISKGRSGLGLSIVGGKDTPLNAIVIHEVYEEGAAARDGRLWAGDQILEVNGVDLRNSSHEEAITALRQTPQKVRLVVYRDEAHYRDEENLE

SAAKVLTSMC [GHRHR, Q02643]
pKd (DFNB31_3, Q9P202): 4.09
pKd (MAGI1_2, Q96QZ7): below the threshold
pKd (GRIP2_3, Q9C0E4): below the threshold
pKd (GRIP1_3, Q9Y3R0): below the threshold
pKd (SYNJ2BP, P57105): 3.59
pKd (NHERF2_2, Q15599): below the threshold
pKd (SHANK1, Q9Y566): 3.89
pKd (PDZRN4_1, Q6ZMN7): below the threshold
pKd (TJP1_3, Q07157): below the threshold
pKd (FRMPD2_2, Q68DX3): below the threshold
pKd (APBA2_2, Q99767): below the threshold
pKd (MPP6, Q9NZW5): below the threshold
pKd (GRID2IP_1, A4D2P6): below the threshold
pKd (MPDZ_12, O75970): below the threshold
pKd (DLG4_3, P78352): below the threshold
pKd (GRIP1_7, Q9Y3R0): below the threshold
pKd (PDZD7_3, Q9H5P4): 4.7
pKd (PTPN13_1, Q12923): below the threshold
pKd (CASK, O14936): below the threshold
pKd (DLG4_2, P78352): 3.63
pKd (GOPC, Q9HD26): below the threshold
pKd (DFNB31_2, Q9P202): below the threshold
pKd (MAGI1_1, Q96QZ7): below the threshold
pKd (MAST1, Q9Y2H9): below the threshold
pKd (Inadl_8, Q8NI35): 4.06
pKd (APBA1_1, Q02410): below the threshold

MLSKQSESAI [FLVCR1, Q9Y5Y0]
pKd (DFNB31_3, Q9P202): below the threshold
pKd (MAGI1_2, Q96QZ7): below the threshold
pKd (GRIP2_3, Q9C0E4): below the threshold
pKd (GRIP1_3, Q9Y3R0): below the threshold
pKd (SYNJ2BP, P57105): 4.52
pKd (NHERF2_2, Q15599): below the threshold
pKd (SHANK1, Q9Y566): below the threshold
pKd (PDZRN4_1, Q6ZMN7): 3.62
pKd (TJP1_3, Q07157): below the threshold
pKd (FRMPD2_2, Q68DX3): below the threshold
pKd (APBA2_2, Q99767): below the threshold
pKd (MPP6, Q9NZW5): below the threshold
pKd (GRID2IP_1, A4D2P6): below the threshold
pKd (MPDZ_12, O75970): below the threshold
pKd (DLG4_3, P78352): below the threshold
pKd (GRIP1_7, Q9Y3R0): below the threshold
pKd (PDZD7_3, Q9H5P4): 3.78
pKd (PTPN13_1, Q12923): below the threshold
pKd (CASK, O14936): below the threshold
pKd (DLG4_2, P78352): 3.84
pKd (GOPC, Q9HD26): below the threshold
pKd (DFNB31_2, Q9P202): below the threshold
pKd (MAGI1_1, Q96QZ7): below the threshold
pKd (MAST1, Q9Y2H9): 4.18
pKd (Inadl_8, Q8NI35): below the threshold
pKd (APBA1_1, Q02410): below the threshold

QSARLWETSI [ADAM22, Q9P0K1]
pKd (DFNB31_3, Q9P202): 4.2
pKd (MAGI1_2, Q96QZ7): below the threshold
pKd (GRIP2_3, Q9C0E4): below the threshold
pKd (GRIP1_3, Q9Y3R0): below the threshold
pKd (SYNJ2BP, P57105): 5.2
pKd (NHERF2_2, Q15599): 3.83
pKd (SHANK1, Q9Y566): 3.72
pKd (PDZRN4_1, Q6ZMN7): 5
pKd (TJP1_3, Q07157): below the threshold
pKd (FRMPD2_2, Q68DX3): 3.97
pKd (APBA2_2, Q99767): below the threshold
pKd (MPP6, Q9NZW5): below the threshold
pKd (GRID2IP_1, A4D2P6): below the threshold
pKd (MPDZ_12, O75970): below the threshold
pKd (DLG4_3, P78352): 4.23
pKd (GRIP1_7, Q9Y3R0): below the threshold
pKd (PDZD7_3, Q9H5P4): 5.16
pKd (PTPN13_1, Q12923): below the threshold
pKd (CASK, O14936): below the threshold
pKd (DLG4_2, P78352): 4.18
pKd (GOPC, Q9HD26): 4.42
pKd (DFNB31_2, Q9P202): 3.57
pKd (MAGI1_1, Q96QZ7): below the threshold
pKd (MAST1, Q9Y2H9): 4.92
pKd (Inadl_8, Q8NI35): 3.81
pKd (APBA1_1, Q02410): below the threshold

TLPRKRMSSI [GPRC6A, Q5T6X5]
pKd (DFNB31_3, Q9P202): below the threshold
pKd (MAGI1_2, Q96QZ7): below the threshold
pKd (GRIP2_3, Q9C0E4): below the threshold
pKd (GRIP1_3, Q9Y3R0): below the threshold
pKd (SYNJ2BP, P57105): below the threshold
pKd (NHERF2_2, Q15599): below the threshold
pKd (SHANK1, Q9Y566): below the threshold
pKd (PDZRN4_1, Q6ZMN7): below the threshold
pKd (TJP1_3, Q07157): below the threshold
pKd (FRMPD2_2, Q68DX3): below the threshold
pKd (APBA2_2, Q99767): below the threshold
pKd (MPP6, Q9NZW5): below the threshold
pKd (GRID2IP_1, A4D2P6): below the threshold
pKd (MPDZ_12, O75970): below the threshold
pKd (DLG4_3, P78352): below the threshold
pKd (GRIP1_7, Q9Y3R0): below the threshold
pKd (PDZD7_3, Q9H5P4): below the threshold
pKd (PTPN13_1, Q12923): below the threshold
pKd (CASK, O14936): below the threshold
pKd (DLG4_2, P78352): below the threshold
pKd (GOPC, Q9HD26): below the threshold
pKd (DFNB31_2, Q9P202): below the threshold
pKd (MAGI1_1, Q96QZ7): below the threshold
pKd (MAST1, Q9Y2H9): 3.6
pKd (Inadl_8, Q8NI35): 3.77
pKd (APBA1_1, Q02410): below the threshold

QSPANIYYKV [EFNB1, P52799]
pKd (DFNB31_3, Q9P202): below the threshold
pKd (MAGI1_2, Q96QZ7): below the threshold
pKd (GRIP2_3, Q9C0E4): below the threshold
pKd (GRIP1_3, Q9Y3R0): below the threshold
pKd (SYNJ2BP, P57105): below the threshold
pKd (NHERF2_2, Q15599): below the threshold
pKd (SHANK1, Q9Y566): below the threshold
pKd (PDZRN4_1, Q6ZMN7): below the threshold
pKd (TJP1_3, Q07157): below the threshold
pKd (FRMPD2_2, Q68DX3): below the threshold
pKd (APBA2_2, Q99767): below the threshold
pKd (MPP6, Q9NZW5): below the threshold
pKd (GRID2IP_1, A4D2P6): below the threshold
pKd (MPDZ_12, O75970): below the threshold
pKd (DLG4_3, P78352): below the threshold
pKd (GRIP1_7, Q9Y3R0): below the threshold
pKd (PDZD7_3, Q9H5P4): below the threshold
pKd (PTPN13_1, Q12923): below the threshold
pKd (CASK, O14936): below the threshold
pKd (DLG4_2, P78352): below the threshold
pKd (GOPC, Q9HD26): below the threshold
pKd (DFNB31_2, Q9P202): below the threshold
pKd (MAGI1_1, Q96QZ7): below the threshold
pKd (MAST1, Q9Y2H9): 3.93
pKd (Inadl_8, Q8NI35): below the threshold
pKd (APBA1_1, Q02410): below the threshold
